According to US20190092819A1 (published 2019):

Target: Recombinant human DSG2 protein (desmoglein 2), soluble (human) (UniProt Q14126)
Assay: method not named at this place; presumably the SPR of FIG. 7 (noDD forms)

Chain of Recombinant human DSG2 protein (desmoglein 2), soluble (human) (Q14126 50-609 limits assumed): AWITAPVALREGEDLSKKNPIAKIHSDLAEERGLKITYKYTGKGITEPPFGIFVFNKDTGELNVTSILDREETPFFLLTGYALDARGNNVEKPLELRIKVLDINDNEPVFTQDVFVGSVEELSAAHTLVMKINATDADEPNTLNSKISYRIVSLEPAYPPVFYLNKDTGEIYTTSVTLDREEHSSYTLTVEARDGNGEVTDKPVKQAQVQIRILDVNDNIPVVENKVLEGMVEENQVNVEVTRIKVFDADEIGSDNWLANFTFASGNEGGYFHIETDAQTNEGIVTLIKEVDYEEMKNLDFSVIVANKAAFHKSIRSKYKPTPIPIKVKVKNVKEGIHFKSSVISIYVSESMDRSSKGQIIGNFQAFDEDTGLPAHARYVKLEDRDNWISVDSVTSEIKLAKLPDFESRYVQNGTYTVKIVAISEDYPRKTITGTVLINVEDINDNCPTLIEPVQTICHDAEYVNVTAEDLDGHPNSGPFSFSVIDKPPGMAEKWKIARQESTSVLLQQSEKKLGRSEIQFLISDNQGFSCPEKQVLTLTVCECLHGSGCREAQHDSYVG

In the case of “JO-4 (dimeric affinity-enhanced Ad3 fiber knob mutant Y250F) (ligand)”, the Kd is reported as 11.4 nM.
